In patent publication US10309966B2, “Personalized therapy of inflammation-associated cancer using methods of assessing the susceptibility of a subject to the treatment with EGFR inhibitors/antagonists” (Medizinische Universität Wien, priority 2014, dated 2019):

B1: gp130: glycoprotein-130, exogenously administered to inhibit IL-6 trans-signaling (protein, UniProt P40189 23-918, looked up)
Interleukin-6 receptor …: ELLDPCGYISPESPVVQLHSNFTAVCVLKEKCMDYFHVNANYIVWKTNHFTIPKEQYTIINRTASSVTFTDIASLNIQLTCNILTFGQLEQNVYGITIISGLPPEKPKNLSCIVNEGKKMRCEWDGGRETHLETNFTLKSEWATHKFADCKAKRDTPTSCTVDYSTVYFVNIEVWVEAENALGKVTSDHINFDPVYKVKPNPPHNLSVINSEELSSILKLTWTNPSIKSVIILKYNIQYRTKDASTWSQIPPEDTASTRSSFTVQDLKPFTEYVFRIRCMKEDGKGYWSDWSEEASGITYEDRPSKAPSFWYKIDPSHTQGYRTVQLVWKTLPPFEANGKILDYEVTLTRWKSHLQNYTVNATKLTVNLTNDRYLATLTVRNLVGKSDAAVLTIPACDFQATHPVMDLKAFPKDNMLWVEWTTPRESVKKYILEWCVLSDKAPCITDWQQEDGTVHRTYLRGNLAESKCYLITVTPVYADGPGSPESIKAYLKQAPPSKGPTVRTKKVGKNEAVLEWDQLPVDVQNGFIRNYTIFYRTIIGNETAVNVDSSHTEYTLSSLTSDTLYMVRMAAYTDEGGKDGPEFTFTTPKFAQGEIEAIVVPVCLAFLLTTLLGVLFCFNKRDLIKKHIWPNVPDPSKSHIAQWSPHTPPRHNFNSKDQMYSDGNFTDVSVVEIEANDKKPFPEDLKSLDLFKKEKINTEGHSSGIGGSSCMSSSRPSISSSDENESSQNTSSTVQYSTVVHSGYRHQVPSVQVFSRSESTQPLLDSEERPEDLQLVDHVDGGDGILPRQQYFKQNCSQHESSPDISHFERSKQVSSVNEEDFVRLKQQISDHISQSCGSGQMKMFQEVSAADAFGPGTEGQVERFETVGMEAATDEGMPKSYLPQTVRQGGYMPQ
B2: IL-6: recombinant mouse IL-6 administered by oral gavage (protein, UniProt P08505 25-211, looked up)
Interleukin-6: FPTSQVRRGDFTEDTTPNRPVYTTSQVGGLITHVLWEIVEMRKELCNGNSDCMNNDDALAENNLKLPEIQRNDGCYQTGYNQEICLLKISSGLLEYHSYLEYMKNNLKDNKKDKARVLQRDTETLIHIFNQEVKDLHKIVLPTPISNALLTDKLESQKEWLRTKTIQFILKSLEEFLKVTLRSTRQT

Assays:
IL-6 trans-signaling = conditions: exogenous administration, mouse model of CAC; cited from earlier work
DSS-induced colitis = assay: Oral recombinant IL-6 during DSS-induced colitis in EGFR mutant mice; assay type: in vivo, mouse; conditions: for DSS-induced weight loss: IL-6 orally during DSS, FIG. 17B; for epithelial proliferation during colitis (BrdU): FIGS. 18A, 26A
Protocol: Colitis was induced by administering 2.5% dextran sulfate sodium salt (DSS) (MP Biomedicals, 0216011080) in autoclaved drinking water for 5 d followed by 5 d of normal water (Chalaris, A. et al., 2010). Colon tumors in mice were induced as previously described (Wirtz, S. et al., 2007; Tanaka, T. et al., 2003). Briefly, mice were injected i.p. with 7.5 mg/kg azoxymethane (AOM) (Sigma-Aldrich, A5486) followed by repeated administration of DSS. 300 U recombinant mouse IL-6 (ImmunoTools GmbH, Germany) was administered by oral gavage.
Mice were injected with 10 mg/kg BrdU 2.5 hrs prior to sacrifice. The colons were extracted, flushed with ice cold PBS to remove feces, fixed overnight at 4° C. in neutral buffered 4% formaldehyde as “Swiss Rolls”, which were further dehydrated, embedded in paraffin and sectioned. Sections were stained with Haematoxylin and Eosin (Sigma), Alcian blue, Giemsa and PAS. Colitis severity and tumor stage were scored and graded by pathologists in a blinded manner according to previously described criteria (Dube, P. E. et al., 2012; Musteanu, M. et al., 2010). For immunohistochemistry, sections were dewaxed, rehydrated and boiled in Citrate buffer pH 6.1 (S1699, Dakocytomation, Glostrup, Denmark) for antigen recovery. Endogenous peroxidase was quenched by incubation with 3% H2O2 in TBS, followed by blocking with 10% goat serum in 2% BSA in TBS—0.1% Tween. Sections were then incubated overnight with antibodies against β-catenin (Cell Signaling, Danvers, Mass.; 9582), cleaved caspase 3 (Cell Signaling; 9661), lysozyme (Dako; A0099), EGFR (sc-03, Santa Cruz Biotechnology, Santa Cruz, Calif.), pTyr705-STAT3 (9145, Cell Signaling), survivin (Cell Signaling; 2808) and synaptophysin (GTX100865, GeneTex Irvine, Calif.), respectively. All sections were further treated with SignalStain® Boost (Cell Signaling; 8114) to detect bound antibody and with liquid3-Amino-9-Ethylcarbazole Chromogen/Substrate (BP 1108, ID LABS™ ON, Canada) for peroxidase staining and counterstained with Haematoxylin (HHS32, Sigma-Aldrich). For BrdU staining, sections were treated with 2 N HCl after antigen recovery, blocked as described above and incubated with anti-BrdU antibody (347580, BD Biosciences) and further with secondary antibody (Invitrogen A-11018) and counterstained with DAPI.
Intestinal barrier permeability was assessed as previously described (Chalaris, A. et al., 2010). Briefly, mice were orally gavaged with 60 mg/kg FITC-Dextran (Sigma FD4), food and water were withdrawn 4 h prior to gavage. FITC levels were determined in the serum 4 h post gavage by absorption at 488 nm using standard dilutions of FITC-Dextran as reference.

Row | Molecule | colitis and tumor development (IL-6 trans-signaling) | DSS-induced weight loss (DSS-induced colitis; Egfr^wa2/wa2 mice) | epithelial proliferation during colitis (BrdU) (DSS-induced colitis; Egfr^wa2/wa2 mice) | apoptosis (cleaved Caspase 3) (DSS-induced colitis; Egfr^ΔIEC mice) | apoptosis (cleaved Caspase 3) (DSS-induced colitis; Egfr^ΔMYL and Egfr^wa2/wa2 mice, FIGS. 18B, 26B) | pY-STAT3 nuclear localization in crypts (DSS-induced colitis; Egfr^ΔMYL mice during DSS treatment, FIGS. 18C, 18D) | DSS-induced weight loss (DSS-induced colitis; Egfr^ΔMYL mice) | number of ulcers (DSS-induced colitis; Egfr^ΔMYL mice, FIG. 17D) | loss of epithelial barrier function (FITC-dextran in serum) (DSS-induced colitis; Egfr^ΔMYL mice, FIG. 17E) | epithelial proliferation during colitis (BrdU) (DSS-induced colitis; Egfr^ΔMYL mice)
1 | B1 | substantial decrease |  |  |  |  |  |  |  |  | 
2 | B2 |  | partially rescued | partially | decreased | not affected | fully restored | able to protect | decreased | protected | fully
